Data on five molecules can be found in patent US20240400715A1 (VIBRANT PHARMA, published 2024).

Where a chain is given by its changes, count along the chain named.

The chains are these.
B1: 306 (TA7), configuration of FIG. 1W (bispecific antibody)
heavy: EVQLVQSGAEVKKPGASVKVSCKASGFTFTSYYIHWVRQAPGQGLEWIGWIYPENDNTKYNEKFKDRVTITADTSTSTAYLELSSLRSEDTAVYYCARDGYSRYYFDYWGQGTLVTVSSASTKGPSVFPLAPCSRSTSESTAALGCLVKDYFPEPVTVSWNSGALTSGVHTFPAVLQSSGLYSLSSVVTVPSSSLGTKTYTCNVDHKPSNTKVDKRVESKYGPPCPPCPAPEAAGGPSVFLFPPKPKDTLMISRTPEVTCVVVDVSQEDPEVQFNWYVDGVEVHNAKTKPREEQFNSTYRVVSVLTVLHQDWLNGKEYKCKVSNKGLPSSIEKTISKAKGQPREPQVYTLPPCQEEMTKNQVSLWCLVKGFYPSDIAVEWESNGQPENNYKTTPPVLDSDGSFFLYSRLTVDKSRWQEGNVFSCSVMHEALHNHYTQKSLSLSL
chain: EVQLVESGGGFVQAGESLTLSCTSSTLTFTPYRMAWYRQAPGKQRDLVADISSGDGRTTNYADFAKGRFTISRDNIKNTVFLRMTNLKPEDTAVYYCNTFVSFVGIARSWGQGTQVTVSSESKYGPPCPPCPAPEAAGGPSVFLFPPKPKDTLMISRTPEVTCVVVDVSQEDPEVQFNWYVDGVEVHNAKTKPREEQFNSTYRVVSVLTVLHQDWLNGKEYKCKVSNKGLPSSIEKTISKAKGQPREPQVCTLPPSQEEMTKNQVSLSCAVKGFYPSDIAVEWESNGQPENNYKTTPPVLDSDGSFFLVSRLTVDKSRWQEGNVFSCSVMHEALHNRFTQKSLSLSL
light: DIVMTQSPDSLAVSLGERATINCKSSQSLLNSRTRKNYLAWYQQKPGQSPKLLIYWTSTRKSGVPDRFSGSGSGTDFTLTISSLQAEDVAVYYCKQSFILRTFGQGTKVEIK
notes: not shown: kappa light chain constant domain (CL)
B2: 311 (TA6), configuration of FIG. 1X (bispecific antibody)
heavy: EVQLVQSGAEVKKPGASVKVSCKASGYTFTNYYIHWVRQAPGQGLEWIGWIYPGDGNTKYNEKFKGRATLTADTSTSTAYLELSSLRSEDTAVYYCARDSYSNYYFDYWGQGTLVTVSSASTKGPSVFPLAPCSRSTSESTAALGCLVKDYFPEPVTVSWNSGALTSGVHTFPAVLQSSGLYSLSSVVTVPSSSLGTKTYTCNVDHKPSNTKVDKRVESKYGPPCPPCPAPEAAGGPSVFLFPPKPKDTLMISRTPEVTCVVVDVSQEDPEVQFNWYVDGVEVHNAKTKPREEQFNSTYRVVSVLTVLHQDWLNGKEYKCKVSNKGLPSSIEKTISKAKGQPREPQVYTLPPCQEEMTKNQVSLWCLVKGFYPSDIAVEWESNGQPENNYKTTPPVLDSDGSFFLYSRLTVDKSRWQEGNVFSCSVMHEALHNHYTQKSLSLSLGGGGSGGGGSEVQLVESGGGFVQAGESLTLSCTSSTLTFTPYRMAWYRQAPGKQRDLVADISSGDGRTTNYADFAKGRFTISRDNIKNTVFLRMTNLKPEDTAVYYCNTFVSFVGIARSWGQGTQVTVSS
chain: ESKYGPPCPPCPAPEAAGGPSVFLFPPKPKDTLMISRTPEVTCVVVDVSQEDPEVQFNWYVDGVEVHNAKTKPREEQFNSTYRVVSVLTVLHQDWLNGKEYKCKVSNKGLPSSIEKTISKAKGQPREPQVCTLPPSQEEMTKNQVSLSCAVKGFYPSDIAVEWESNGQPENNYKTTPPVLDSDGSFFLVSRLTVDKSRWQEGNVFSCSVMHEALHNRFTQKSLSLSL
light: B1 light with S49P, T57A, K61E, K95T
notes: as for B1
B3: 312 (TA7), configuration of FIG. 1X (bispecific antibody)
heavy: B2 heavy with Y27F, N31S, G54E, D55N, G56D, G66D, A68V, L70I, S100G, N103R
chain: B2 chain
light: B1 light
notes: as for B1
B4: 308 (TA3), configuration of FIG. 1X (bispecific antibody)
heavy: EVQLVESGGGLVQPGGSLRLSCAASGYSFTGYTMNWVRQAPGKGLEWVALINPYKGVSTYNQKFKDRFTISVDKSKNTAYLQMNSLRAEDTAVYYCARSGYYGDSDWYFDVWGQGTLVTVSSASTKGPSVFPLAPCSRSTSESTAALGCLVKDYFPEPVTVSWNSGALTSGVHTFPAVLQSSGLYSLSSVVTVPSSSLGTKTYTCNVDHKPSNTKVDKRVESKYGPPCPPCPAPEAAGGPSVFLFPPKPKDTLMISRTPEVTCVVVDVSQEDPEVQFNWYVDGVEVHNAKTKPREEQFNSTYRVVSVLTVLHQDWLNGKEYKCKVSNKGLPSSIEKTISKAKGQPREPQVYTLPPCQEEMTKNQVSLWCLVKGFYPSDIAVEWESNGQPENNYKTTPPVLDSDGSFFLYSRLTVDKSRWQEGNVFSCSVMHEALHNHYTQKSLSLSLGGGGSGGGGSEVQLVESGGGFVQAGESLTLSCTSSTLTFTPYRMAWYRQAPGKQRDLVADISSGDGRTTNYADFAKGRFTISRDNIKNTVFLRMTNLKPEDTAVYYCNTFVSFVGIARSWGQGTQVTVSS
chain: B2 chain
light: DIQMTQSPSSLSASVGDRVTITCRASQDIRNYLNWYQQKPGKAPKLLIYYTSRLESGVPSRFSGSGSGTDYTLTISSLQPEDFATYYCQQGNTLPWTFGQGTKVEIK
notes: as for B1
B5: 310 (TA5), configuration of FIG. 1X (bispecific antibody)
heavy: DVQLVQSGAEVKKPGASVKVSCKASGYTFTRYTMHWVRQAPGQGLEWIGYINPSRGYTNYADSVKGRFTITTDKSTSTAYMELSSLRSEDTATYYCARYYDDHYCLDYWGQGTTVTVSSASTKGPSVFPLAPCSRSTSESTAALGCLVKDYFPEPVTVSWNSGALTSGVHTFPAVLQSSGLYSLSSVVTVPSSSLGTKTYTCNVDHKPSNTKVDKRVESKYGPPCPPCPAPEAAGGPSVFLFPPKPKDTLMISRTPEVTCVVVDVSQEDPEVQFNWYVDGVEVHNAKTKPREEQFNSTYRVVSVLTVLHQDWLNGKEYKCKVSNKGLPSSIEKTISKAKGQPREPQVYTLPPCQEEMTKNQVSLWCLVKGFYPSDIAVEWESNGQPENNYKTTPPVLDSDGSFFLYSRLTVDKSRWQEGNVFSCSVMHEALHNHYTQKSLSLSLGGGGSGGGGSEVQLVESGGGFVQAGESLTLSCTSSTLTFTPYRMAWYRQAPGKQRDLVADISSGDGRTTNYADFAKGRFTISRDNIKNTVFLRMTNLKPEDTAVYYCNTFVSFVGIARSWGQGTQVTVSS
chain: B2 chain
light: DIVLTQSPATLSLSPGERATLSCRASQSVSYMNWYQQKPGKAPKRWIYDTSKVASGVPARFSGSGSGTDYSLTINSLEAEDAATYYCQQWSSNPLTFGGGTKVEIK
notes: VL row printed 'TAS VL', read as TA5 VL; full chains assembled from parts; not shown: kappa light chain constant domain (CL)

One test concerns the target T1, human CD3ε/δ (ACRO systems, CDD-H52W1) (human, UniProt P07766 23-126; P04234 22-105).
T1 construct: bought recombinant heterodimer; also called human CD3 epsilon/delta; Human CD3ε/CD3δ
Description: serum-stability ELISA, Day 1 vs Day 0.
Description: (§1) The samples to be tested were centrifuged at 4° C. at 12000 rpm for 30 minutes to remove the precipitate. 200 μl of each sample to be tested (0.5 mg/ml) was collected in a 1.5 ml Eppendorf tube. An equal volume of human serum (GEMINI, H2OYOOK) was added, mixed thoroughly, and the mixture was incubated in a 37° C. constant temperature CO₂ incubator. For a total of 10 days, 40 μl samples was aspirated every day and stored at −20° C.
(§2) Enzyme-linked immunosorbent assay (ELISA) was used to test the bispecific antibodies' binding to human CEA and human CD3 epsilon/delta antigen. The steps are as follows: the antigen human CD3ε/δ (ACRO systems, CDD-H52W1) and the recombinant tumor antigen human CEA (CEACAM-5/CD66e, ACRO systems, CE5-H5226) were diluted to 1 μg/ml with PBS, and then added to the 96-well plate at 100 μl per well. The wells were coated overnight at 4° C. After washing 3 times with 0.05% PBST, 200 μl 5% skimmed milk powder was added to each well and incubated at 37° C. for 2 h. After washing 3 times with 0.05% PBST, 100 μl primary antibody sample (10 μg/ml) was added to each well, and incubated at 37° C. for 2 h. After washing 3 times with 0.05% PBST, 100 μl (1:6000) diluted secondary antibody goat anti-human Fc-HRP (sigma, A2170) was added to each well, incubated at room temperature for 1 h. After washing 8 times with 0.05% PBST, 50 μl TMB color developing solution was added to each well, and incubated at room temperature for 10-15 min. 50 μl 1 mM HCl was added to each well to stop the color development. 450 nm Absorbance (OD) was read.
(§3) The binding of antibodies to antigen was calculated according to the following formula: Binding (%)=[(ODdayn−ODb)/(ODday0−ODb)]×100%. ODdayn: experimental well (the protein was stored in the serum for n days); ODday0: control well (the protein was not stored in the serum); ODb: blank well (no primary antibody added).
With B1, the Binding % was 112%.
For B2, the Binding % amounted to 105%.
B3 had a Binding % of 103%.
B4 showed a Binding % of 106%.
On the same count and under the same terms, in the case of B5 it was 96.1%.

In the next test the target is T1, human CD3ε/δ (ACRO systems, CDD-H52W1). Description: serum-stability ELISA, Day 2 vs Day 0. On the technique in general: In an ELISA, binding on a coated surface is turned into a signal by an enzyme label.
Description: as §1, §2, §3
The molecule B1 came in with a Binding % of 110%.
Same read-out and setting: as for B2, the figure is 105%.
In turn, B3 showed a Binding % of 106%.
Still for that read-out and setting: as for B4, the figure is 100%.
B5 returned a Binding % of 90.2%.

The target is the same in another test. Description: serum-stability ELISA, Day 5 vs Day 0.
Description: as §1, §2, §3
Regarding B1, the Binding % came out at 115%.
In turn, B2 came in with a Binding % of 103%.
B3 gave a Binding % of 104%.
As to B4, the Binding % was found to be 107%.
B5 registered a Binding % of 92.2%.

Another test has the same target. Description: serum-stability ELISA, Day 6 vs Day 0.
Description: as §1, §2, §3
Consider B1, for which the Binding % is 101%.
Still for that read-out and setting: as for B2, the figure is 104%; as for B3, 102%; as for B4, 103%.
As to B5, the Binding % was determined as 93.2%.

The target is the same in the next test. The test can be described thus: serum-stability ELISA, Day 7 vs Day 0.
Description: as §1, §2, §3
Turning to B1, the Binding % came out at 105%.
As for B2, the Binding % was 101%.
For the molecule B3, the Binding % worked out at 98.2%.
As for B4, the Binding % was 109%.
Consider B5, for which the Binding % was determined as 89.2%.

For a further test the target is unchanged. Description: serum-stability ELISA, Day 9 vs Day 0.
Description: as §1, §2, §3
The molecule B1 yielded a Binding % of 95.1%.
In the case of B2, the Binding % came to 100%.
Turning to B3, the Binding % worked out at 101%.
The same measure, in the same setting: in the case of B4 it was 110%.
Turning to B5, the Binding % was 90.3%.

A further test shares this target. Description: serum-stability ELISA, Day 10 vs Day 0.
Description: as §1, §2, §3
On to B1, for which the Binding % is 112%.
With B2, the Binding % came out at 101%.
Regarding B3, the Binding % amounted to 104%.
Molecule B4 returned a Binding % of 103%.
The molecule B5 gave a Binding % of 101%.

The target is the same in a further test. Description: serum-stability ELISA, Day 0 (reference).
B1 showed a Binding % of 100%.
Regarding B2, the Binding % was determined as 100%.
In the case of B3, the Binding % was found to be 100%.
Molecule B4 returned a Binding % of 100%.
In the case of B5, the Binding % was found to be 100%.
